Measured values reported in paper PMC6297355.

Assays:
[1] = target: 5-carboxyfluorescein (5-FAM) labeled LVEALY tracer; test: fluorescence polarisation (Δmp read-out, fluorescent peptide tracer); details: 30 µM BAG3P209L; 30 µM BAG3WT; parent: est. 2; read off a plot
[2] = target: BAG3^WT (recombinant) (human) (UniProt O95817); test: ITC; NBD (100 μM) in the syringe titrated into 10 μM BAG3 in the cell; 25 mM HEPES, 5 mM MgCl2, 100 mM KCl, pH 7.5; 25 °C; one-site binding model
[3] = target: BAG3^P209L (recombinant) (human) (UniProt O95817); test: as above
BAG3^P209L (recombinant) (human), sequence (O95817 whole entry P209L): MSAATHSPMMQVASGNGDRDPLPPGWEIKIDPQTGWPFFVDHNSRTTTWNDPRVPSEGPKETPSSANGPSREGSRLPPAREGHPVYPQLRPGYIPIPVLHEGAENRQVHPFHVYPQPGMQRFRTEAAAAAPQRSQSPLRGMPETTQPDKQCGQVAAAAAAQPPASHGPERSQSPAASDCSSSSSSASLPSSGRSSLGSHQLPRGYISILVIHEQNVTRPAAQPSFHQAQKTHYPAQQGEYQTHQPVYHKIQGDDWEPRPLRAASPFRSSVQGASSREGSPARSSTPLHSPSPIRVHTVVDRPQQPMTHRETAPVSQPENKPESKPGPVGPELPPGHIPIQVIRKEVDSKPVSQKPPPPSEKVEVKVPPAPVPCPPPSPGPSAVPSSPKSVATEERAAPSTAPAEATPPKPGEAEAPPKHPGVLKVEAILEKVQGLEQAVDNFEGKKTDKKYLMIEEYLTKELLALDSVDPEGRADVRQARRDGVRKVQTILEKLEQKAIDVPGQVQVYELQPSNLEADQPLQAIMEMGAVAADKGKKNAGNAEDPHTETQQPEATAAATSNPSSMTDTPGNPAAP

BAG3^WT (recombinant), O95817 P209L, sequence (O95817 whole entry P209L): as above
BAG3^WT (recombinant) (human), sequence (O95817 whole entry): as the sequence (O95817 whole entry P209L) above, with L209P counted along it

Row | response [1] | Kd [2] | Kd [3] | Substance
1 | 54 Δmp |  |  | BAG3^WT (recombinant), O95817 P209L
2 |  | 300 nM | 300 nM | HSPA8^NBD (nucleotide-binding domain of HSPA8) (domain or fragment)
